The values below come from patent US6861234B1, “Method of epitope discovery” (MannKind Corporation, priority 2000, dated 2005).

The target of this test is HLA-A2.1 (Homo sapiens, UniProt P04439, D140Y/D185E/D98H/E176V/E277Q/G131W/G231S/I119V/I121R/I166T/I218V/L300P/L318F/N151K/N90K/P208A/P217A/Q86G/Q94H/R138H/R169H/T345S). The experiment in a line: T2 cell HLA-A2.1 stabilisation (peptide binding) assay by flow cytometry, method of Stauss et al. As to conditions: T2 cells, β2 microglobulin 5 μg/ml, peptides at 100, 10, 1 and 0.1 μg/ml, 4 hours 37° C., W6/32 + FITC anti-mouse IgG, FACScan; FIG. 3. The class given is cell-based. An excerpt:
The epitope is synthesized and tested for its ability to bind a MHC receptor. For example, in one preferred assay, cells displaying the MHC I receptor can be used to measure the binding affinity of candidate peptides labeled with a radionuclide. Another preferred approach measures the ability of a peptide to bind to an MHC I receptor using a cell culture-based assay. In this assay, cells lacking transporters associated with antigen processing (TAP) are used to determine whether or not a candidate peptide has the ability to bind to the MHC I receptor. […] When the cell is flooded with exogenous peptide that can bind to the MHC I cleft, expression of the receptor is restored. This can be monitored by several means such as RIA, FACS, and the like. Using TAP^− cells, one of skill in the art can screen large numbers of potential candidate peptides for receptor binding without having to perform detailed binding affinity analysis.
Binding of a candidate epitope to HLA-A2.1 was assayed according to the method of Stauss et al., (Proc Natl Acad Sci USA 89(17):7871-5 (1992)). […] Peptides were added at 100, 10, 1 and 0.1 μg/ml. The plate was rocked gently for 2 minutes and then incubated for 4 hours in a 5% CO2 incubator at 37° C. After the unbound peptide was removed by washing twice with IMDM, a saturating amount of monoclonal antibody W6/32 (Sigma) was added. […]
(In general: In flow cytometry, cells or beads pass a laser one at a time.)

Regarding “FLPWHRLFLL (Homo sapien) [tyrosinase 207-216]”, the “binding to HLA-A2.1 (surface HLA-A2.1 molecules stabilized by peptide binding, fluorescence)” value is on record as “bind HLA-A2.1 to a similar extent as the known A2.1 binder FLPSDYFPSV”.
